Laboratory results published in the supplement of paper PMC11246515.
± gives the standard deviation of the averaged measurements.

Experiment: total protein half-life in vivo (active degradation + dilution); higher = more stable protein
[1] = E. coli NCM3722 delta-clpP, growth: N-lim chemostat, doubling time 6 h
[2] = E. coli NCM3722 delta-smpB, growth: N-lim chemostat, doubling time 6 h
[3] = wild type E. coli NCM3722, growth: C-lim chemostat, doubling time 12 h
[4] = wild type E. coli NCM3722, growth: N-lim chemostat, doubling time 12 h
[5] = wild type E. coli NCM3722, growth: C-lim chemostat, doubling time 6 h
[6] = E. coli NCM3722 delta-clpP delta-lon delta-hslV, growth: N-lim chemostat, doubling time 6 h
[7] = E. coli NCM3722 delta-hslV, growth: N-lim chemostat, doubling time 6 h
[8] = wild type E. coli NCM3722, growth: C-lim chemostat, doubling time 3 h
[9] = wild type E. coli NCM3722, growth: N-lim chemostat, doubling time 6 h
[10] = wild type E. coli NCM3722, growth: P-lim chemostat, doubling time 6 h
[11] = wild type E. coli NCM3722, growth: P-lim chemostat, doubling time 12 h
[12] = E. coli NCM3722 delta-lon, growth: N-lim chemostat, doubling time 6 h

Sequence	total protein half-life in vivo [1] [h]	total protein half-life in vivo [2] [h]	total protein half-life in vivo [3] [h]	total protein half-life in vivo [4] [h]	total protein half-life in vivo [5] [h]	total protein half-life in vivo [6] [h]	total protein half-life in vivo [7] [h]	total protein half-life in vivo [8] [h]	total protein half-life in vivo [9] [h]	total protein half-life in vivo [10] [h]	total protein half-life in vivo [11] [h]	total protein half-life in vivo [12] [h]
MPRFFTRHAATLFFPMALILYDFAAYLSTDLIQPGIINVVRDFNADVSLAPAAVSLYLAGGMALQWLLGPLSDRIGRRPVLITGALIFTLACAATMFTTSMTQFLIARAIQGTSICFIATVGYVTVQEAFGQTKGIKLMAIITSIVLIAPIIGPLSGAALMHFMHWKVLFAIIAVMGFISFVGLLLAMPETVKRGAVPFSAKSVLRDFRNVFCNRLFLFGAATISLSYIPMMSWVAVSPVILIDAGSLTTSQFAWTQVPVFGAVIVANAIVARFVKDPTEPRFIWRAVPIQLVGLSLLIVGNLLSPHVWLWSVLGTSLYAFGIGLIFPTLFRFTLFSNKLPKGTVSASLNMVILMVMSVSVEIGRWLWFNGGRLPFHLLAVVAGVIVVFTLAGLLNRVRQHQAAELVEEQ	7.03	–	–	–	–	–	–	–	–	–	–	–
MKKLILIAIMASGLVACAQSTAPQEDSRLKEAYSACINTAQGSPEKIEACQSVLNVLKKEKQHQQFADQESVRVLDYQQCLRATQTGNDQAVKADCDKVWQEIRSNNK	–	5.85	9.68 ± 2.6	> 16	–	–	–	–	–	–	–	–
MKRKTLPLLALVATTLFLIACDDRSDDLKAISKFKDLTPPRFSDVVSHQDDVSEEWSQVDYLSGPTLQVLRTRQSPDGCEDGSYYYLVDMQEKTVQPLMNALCIADNIKLEYQEVTDPYTKEKYFEYAHDGKLMGQLLIPSNPDNQE	–	–	–	–	1.71	–	–	–	–	–	–	–
MKKKTTLSEEDQALFRQLMAGTRKIKQDTIVHRPQRKKISEVPVKRLIQEQADASHYFSDEFQPLLNTEGPVKYVRPDVSHFEAKKLRRGDYSPELFLDLHGLTQLQAKQELGALIAACRREHVFCACVMHGHGKHILKQQTPLWLAQHPHVMAFHQAPKEYGGDAALLVLIEVEEWLPPELP [P0A8B2]	2.898 ± 0.019	3.68 ± 0.36	5.34	3.87 ± 0.36	3.84 ± 0.16	3.99 ± 0.33	3.03 ± 0.56	2.46 ± 0.48	2.99 ± 0.086	3.06 ± 0.1	6 ± 0.6	–
MTTQYGFFIDSSRCTGCKTCELACKDFKDLGPEVSFRRIYEYAGGDWQEDNGVWHQNVFAYYLSISCNHCDDPACTKVCPSGAMHKREDGFVVVDEDVCIGCRYCHMACPYGAPQYNAEKGHMTKCDGCYSRVAEGKQPICVESCPLRALEFGPIEELRQKHGTLAAVAPLPRAHFTKPNIVIKPNANSRPTGDTTGYLANPEEV [P0AAJ1]	–	–	–	–	–	4.03	–	–	–	–	–	–
MGQRIPVTLGNIAPLSLRPFQPGRIALVCEGGGQRGIFTAGVLDEFMRAQFNPFDLYLGTSAGAQNLSAFICNQPGYARKVIMRYTTKREFFDPLRFVRGGNLIDLDWLVEATASQMPLQMDTAARLFDSGKSFYMCACRQDDYAPNYFLPTKQNWLDVIRASSAIPGFYRSGVSLEGINYLDGGISDAIPVKEAARQGAKTLVVIRTVPSQMYYTPQWFKRMERWLGDSSLQPLVNLVQHHETSYRDIQQFIEKPPGKLRIFEIYPPKPLHSIALGSRIPALREDYKLGRLCGRYFLATVGKLLTEKAPLTRHLVPVVTPESIVIPPAPVANDTLVAEVSDAPQANDPTFNNEDLA	1.8805 ± 0.0012	1.185 ± 0.0061	4.59 ± 0.59	1.77 ± 0.024	3.889 ± 0.011	5.99 ± 1.5	1.31 ± 0.025	1.89 ± 0.15	1.45 ± 0.16	2.12 ± 0.31	4.69 ± 0.97	1.89 ± 0.25
MTSLYLASGSPRRQELLAQLGVTFERIVTGIEEQRQPQESAQQYVVRLAREKARAGVAQTAKDLPVLGADTIVILNGEVLEKPRDAEHAAQMLRKLSGQTHQVMTAVALADSQHILDCLVVTDVTFRTLTDEDIAGYVASDEPLDKAGAYGIQGLGGCFVRKINGSYHAVVGLPLVETYELLSNFNALREKRDKHDG	3.38 ± 0.24	3.26 ± 0.49	8.84 ± 0.45	4.52	5.629 ± 0.034	4.55 ± 0.58	3.17 ± 0.25	3.2 ± 0.29	3.15 ± 0.4	5.41	11.9 ± 1.7	3.02
MAMHLNENLDDNGEMHDINVTPFIDVMLVLLIIFMVAAPLATVDVKVNLPASTSTPQPRPEKPVYLSVKADNSMFIGNDPVTDETMITALNALTEGKKDTTIFFRADKTVDYETLMKVMDTLHQAGYLKIGLVGEETAKAK [P0ABV2]	2.74 ± 0.56	0.61	1.88 ± 0.74	–	0.847 ± 0.64	2.68 ± 0.35	–	1.34 ± 0.17	1.12	1.01	2.15	–
MYRIVLGKVSTLSAAPLPPGLREQAPQGPRRERWLAGRALLSHTLSPLPEIIYGEQGKPAFAPEMPLWFNLSHSGDDIALLLSDEGEVGCDIEVIRPRANWRWLANAVFSLGEHAEMDAVHPDQQLEMFWRIWTRKEAIVKQRGGSAWQIVSVDSTYHSSLSVSHCQLENLSLAICTPTPFTLTADSVQWIDSVN	–	2.53 ± 0.075	8.278 ± 0.081	6.11 ± 0.44	4.94 ± 0.18	4.86 ± 0.67	3.56 ± 0.17	2.55 ± 0.032	3.78 ± 0.16	5.86 ± 0.65	11.1 ± 2.4	3.99 ± 0.64
